Results reported in US20250163183A1 (COAGULANT THERAPEUTICS, published 2025).

Legend:
[1] = biological target: T1, human APC-PPACK (active site-blocked APC) (human, UniProt P04070 43-461, active site bound by the tripeptide inhibitor Phe-Pro-Arg-chloromethylketone (PPACK)); experiment: ELISA
T1 construct: Bought (Haematologic Technologies)

[2] = biological target: T2, human protein C (PC) zymogen (human, UniProt P04070 43-197; P04070 200-461); experiment: ELISA screen, PC-coated wells, OD450, n=2 [Continued]
T2 construct: Bought
T2 sequence (P04070 43-197, chain 1 of 2): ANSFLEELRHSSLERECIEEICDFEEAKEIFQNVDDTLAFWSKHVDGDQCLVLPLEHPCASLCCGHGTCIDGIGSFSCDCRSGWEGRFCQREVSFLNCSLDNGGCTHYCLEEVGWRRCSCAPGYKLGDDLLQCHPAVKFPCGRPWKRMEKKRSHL
T2 sequence (P04070 200-461, chain 2 of 2): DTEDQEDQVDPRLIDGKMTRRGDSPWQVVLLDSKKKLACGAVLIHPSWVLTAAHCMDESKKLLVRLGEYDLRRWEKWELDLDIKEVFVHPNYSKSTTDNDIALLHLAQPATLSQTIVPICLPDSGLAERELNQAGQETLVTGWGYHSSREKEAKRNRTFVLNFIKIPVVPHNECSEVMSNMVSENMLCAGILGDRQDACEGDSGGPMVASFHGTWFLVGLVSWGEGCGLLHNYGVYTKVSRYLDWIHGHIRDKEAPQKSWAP

T1 sequence (P04070 other isoform, or with tags, fused parts or gaps): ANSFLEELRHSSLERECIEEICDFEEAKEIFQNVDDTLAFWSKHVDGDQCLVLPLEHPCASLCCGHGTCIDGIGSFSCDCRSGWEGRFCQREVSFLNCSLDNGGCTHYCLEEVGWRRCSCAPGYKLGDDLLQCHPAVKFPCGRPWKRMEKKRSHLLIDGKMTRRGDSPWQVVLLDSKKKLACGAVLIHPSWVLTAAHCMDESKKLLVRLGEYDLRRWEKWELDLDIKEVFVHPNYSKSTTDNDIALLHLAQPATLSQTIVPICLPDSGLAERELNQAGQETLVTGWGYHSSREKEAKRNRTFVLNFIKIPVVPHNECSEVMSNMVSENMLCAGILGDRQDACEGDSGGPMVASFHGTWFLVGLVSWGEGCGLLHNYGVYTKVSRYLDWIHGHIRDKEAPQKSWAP

Row | Binder | binding result [1] | binding result [2]
1 | SR16983-R3P2A07 (VHH) VHH: QVQLVESGGRLVQAGGSLRLSCAASGRTSSNYAMGWFRQAPGKERRFVAGISRDGADTSYADSVKGRFTILRDRSKNTADLQMNSLKPEDTAIYYCAAARGIYGEISRYTGDYESWGQGTQVTVSS | binds | no binding
2 | SR16983-R3-P3-G05 (VHH) VHH: QLQLVESGGGLVQAGGSLRLSCAASGFTLDDYAIGWFRQAPGKEREGVSCIASSDGSTYYADSVKGRFTISTDNAKNTVYLQMNSLKPEDTAVYYCARGGLLLPKPELFDSWGQGTQVTVSS | binds | no binding
3 | SR16983-R3-P3-A12 (VHH) VHH: QLQLVESGGGLVQPGGSLRLSCAVSGFTLDDYAIGWFRQAPGKEREGVSSIATSDGSTYYADSVKGRFTISSDNAKNTVYLQMNSLKPEDTAVYYCARGGLLLPRPELYEYWGQGTQVTVSS | binds | no binding
4 | SR16983-R3P2D09 (VHH) VHH: QVQLVESGGGLVQAGGSLRLSCAASGRTVGSYAMGWFRQAPGKEREFLAAFSRSTGNTVYADSVKGRFTISRDDAKNTLYLQMNSLKPEDTAVYYCAARASINYNYANWPYWGQGTQVTVSS | binds | no binding
5 | SR16983-R3-P3-G03 (VHH) VHH: QVQLVESGGGLVQAGGSLRLSCAASGRTVGSYVMGWFRQAPGKERELLAAFSRSTGNTVYADSVKGRFTISRDDAKNTLYLQMNSLKPEDTAVYYCAARASINYNYANWPYWGQGTQVTVSS | binds | no binding
6 | SR16983-R3-P3-F04 (VHH) VHH: QLQLVESGGGLVQAGGSLRLSCAASGRTVGSYAMGWFRQAPGKEREFLAASSRSTGNTVYADSVKGRFTISRDDAKNTLYLQMNSLKPEDTAVYYCAARASINYNYANWPYWGQGTQVTVSS | binds | no binding
7 | SR16983-R3P2H05 (VHH) VHH: QLQLVESGGGLVQPGGSLRLACAASGFSFDDYAIGWFRQAPGKEREGVSCITSDGSTYYADSVKGRFTISSDYAKNTVHLQMNSLKPEDTAVYYCARGGLLLPKPELFDDWGQGTQVTVSS | binds | no binding

More lines, now with the values ahead:

Row | binding result [1] | binding result [2] | Binder
8 | binds | no binding | SR16983-R2-P2-E10 (VHH) VHH: QLQLVESGGGLVQPGGSLRLSCVLSGSTFGRNVITWYRQPPGKQREFIAMITTSGSTRYADSVKGRFTMSRDTAKNTAFLQMSNLKLEDTAVYYCWTAIAGQGEYWGQGTQVTVSS
9 | binds | no binding | SR16983-R4-P1-C07 (VHH) VHH: EVQLVESGGGVVQAGGSLRLSCVLSGNTFGDNVITWYRQPPGKQREFIAMITKSGSTRYADSVKGRFTMSRDTAKNTAFLQMSSLKVEDTAVYYCWTAIAGQGEYWGQGTQVTVSS
10 | binds | no binding | SR16983-R3-P4-A05 (VHH) VHH: QLQLVESGGGLVQAGGSLRLSCAASGFTLDDYAIGWFRQAPGKEREGVSCIATSDGSTYYADSVKGRFTISSDAAKNTVYLQMDSLKPEDTAVYYCARGGLLLPKPELFDGWGQGTQVTVST
11 | binds | no binding | SR16983-R2-P2-A08 (VHH) VHH: QVQLVESGGGVVQAGGSLRLSCAASGLTSSTYVMAWFRQAPGKEREFVSVIDSRGDTTYAKSVKGRFSISRDNGKNAVYLQMNSLQPEDTALYYCAARASASYVARMYAYWGRGTQVTVSS
12 | binds | no binding | SR16983-R2-P4-G06 (VHH) VHH: EVQLVESGGGLVQAGGSLRLSCTTSGSTFSITAGGWYRQAPGKQRELVADIANDGSTTYADSVKGRFTISRDNAKNTVELQMSSLKLEDTAVYLCFVVGISDSTPRPRAYWGQGTQVTVSS
